For experiment [1], the target named is T1, Cyno FRα ECD-Avi-His (cynomolgus monkey, biotin on the Avi-tag (BirA) in the HTRF assays).
T1 construct: Soluble region with C-terminal Avi and His tags
Nature of the experiment: SPR (Biacore T200, 25°C); antibody captured on Protein A, FRα ECD as analyte. On the procedure:
(§1) Protein A was covalently immobilised to a CM5 chip surface using standard amine coupling techniques at a concentration of 50 μg/ml in 10 mM Sodium acetate, pH 4.0. The antibody was captured onto the Protein A surface in HBS-EP+ buffer, pH 7.4 at 10 μl/min to enable FRα ECD binding. The FRα ECD was serially diluted (0.4 nM-100 nM human FRα ECD; 0.8 nM-200 nM cyno FRα ECD; 30 nM-4000 nM mouse FRα ECD and rat FRα ECD) in HBS-EP+ buffer, pH 7.4 and flowed over the chip at 50 μl/min, with 2 minutes association and 8 minutes dissociation. The chip surface was fully regenerated with pulses of 3 M MgCl₂ to remove captured antibody together with any bound FRα ECD. Multiple buffer-only injections were made under the same conditions to allow for double reference subtraction of the final sensorgram sets, which were analysed using Biacore T200 Evaluation Software to derive equilibrium dissociation constants.
In general terms: SPR reads the build-up and loss of mass on a sensor chip optically.

Experiment [2] concerns the target T2, Mouse FRα ECD-Avi-His (mouse, biotin on the Avi-tag (BirA) in the HTRF assays).
T2 construct: Soluble region with C-terminal Avi and His tags
Description: HTRF antigen binding assay; hybridoma supernatant, 1 nM biotinylated antigen. On the procedure: (§2) HTRF assays were performed in 384-well white shallow well non-binding plates (Corning, 4513) in assay buffer containing phosphate-buffered saline (PBS) (Life Technologies, 14190), 0.100 v/v bovine serum albumin (BSA) (Sigma, A9576), and 0.4 M potassium fluoride (VWR International, 26820).
(§3) Supernatants containing mouse IgG from hybridoma cells were incubated at a final assay dilution of 25% with 0.5 nM streptavidin-cryptate (CisBio, 610SAKLB), anti-mouse IgG AF647 (Jackson ImmunoResearch, 115-605-164) and 1 nM biotinylated human FRα, cyno FRα, mouse FRα, human FRβ or human FRγ to give a final assay volume of 10 μl, for 4 hours at room temperature before fluorescence was measured.
(In general: Time-resolved FRET reads energy transfer from a long-lived donor to a nearby acceptor.)

In experiment [3] the target is T3, Human FRγ ECD-Avi-His (human, biotin on the Avi-tag (BirA) in the HTRF assays).
T3 construct: Soluble region with C-terminal Avi and His tags
The experiment is described as above. On the procedure: as §2, §3

Experiment [4] concerns the target T4, Human FRβ ECD-Avi-His (human, biotin on the Avi-tag (BirA) in the HTRF assays).
T4 construct: Soluble region with C-terminal Avi and His tags; also called Human FRß
The experiment is described as above. How it is done:
as §2, §3

The target in experiment [5] is T5, Human FRα ECD-Avi-His (human, biotin on the Avi-tag (BirA) in the HTRF assays).
T5 construct: also called biotinylated human FRα; folate receptor alpha
Nature of the experiment: MOv19 HTRF epitope competition assay; accelerated stability study.

The target in experiment [6] is T5, Human FRα ECD-Avi-His. Nature of the experiment: MOv19 HTRF epitope competition assay, geomean; IgG kept 2 weeks at 45°C; competitor MOv19.
Experiment [7] deals with T5, Human FRα ECD-Avi-His. Description: SPR (Biacore T200, 25°C); antibody captured on Protein A, FRα ECD as analyte. How it is done: as §1
Experiment [8] concerns the target T5, Human FRα ECD-Avi-His. Nature of the experiment: HTRF epitope competition assay, geomean n>2; competitor DyLight 650 labelled Comparator Antibody 1. On the procedure:
as §2
(§4) HTRF epitope competition assays were set up using a titration of test IgG, 1 nM streptavidin cryptate, biotinylated human FRα and DyLight 650 labelled IgG to assay volume of 10 μl. […] Assay plates were incubated for 3-4 h at room temperature prior to fluorescence measurement.

Experiment [9] has as its target T1, Cyno FRα ECD-Avi-His. Description: SPR (Biacore T200). On the procedure: as §1
Experiment [10] concerns the target T5, Human FRα ECD-Avi-His. Nature of the experiment: MOv19 HTRF epitope competition assay, geomean; IgG kept 2 weeks at 4°C; competitor MOv19.
For experiment [11], the target named is T5, Human FRα ECD-Avi-His. Nature of the experiment: HTRF epitope competition assay, geomean n>2; competitor DyLight 650 labelled Comparator Antibody 2. On the procedure:
as §2, §4

T4 sequence (chain, as listed by the source limits assumed): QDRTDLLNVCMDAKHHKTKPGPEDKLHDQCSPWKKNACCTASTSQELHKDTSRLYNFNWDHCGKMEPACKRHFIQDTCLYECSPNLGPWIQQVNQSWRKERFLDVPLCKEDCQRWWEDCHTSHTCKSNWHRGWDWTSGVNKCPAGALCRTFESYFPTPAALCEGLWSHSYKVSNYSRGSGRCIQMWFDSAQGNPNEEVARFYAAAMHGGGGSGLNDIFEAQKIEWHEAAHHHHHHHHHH
T3 sequence (chain, as listed by the source limits assumed): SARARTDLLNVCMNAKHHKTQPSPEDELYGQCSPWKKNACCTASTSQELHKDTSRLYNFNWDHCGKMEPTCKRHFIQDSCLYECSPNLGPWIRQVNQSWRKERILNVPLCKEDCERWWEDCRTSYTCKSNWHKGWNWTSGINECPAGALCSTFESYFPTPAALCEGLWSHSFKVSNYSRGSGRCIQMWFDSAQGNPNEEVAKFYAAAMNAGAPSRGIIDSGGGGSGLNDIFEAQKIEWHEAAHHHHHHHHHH
T5 sequence (chain, as listed by the source limits assumed): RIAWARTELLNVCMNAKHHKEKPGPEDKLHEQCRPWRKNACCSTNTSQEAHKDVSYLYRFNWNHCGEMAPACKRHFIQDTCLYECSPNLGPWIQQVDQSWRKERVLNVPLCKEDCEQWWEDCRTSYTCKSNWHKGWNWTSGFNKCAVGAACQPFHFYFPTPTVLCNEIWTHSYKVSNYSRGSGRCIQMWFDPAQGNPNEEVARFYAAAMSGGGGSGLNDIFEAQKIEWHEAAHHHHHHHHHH
T1 sequence (chain, as listed by the source limits assumed): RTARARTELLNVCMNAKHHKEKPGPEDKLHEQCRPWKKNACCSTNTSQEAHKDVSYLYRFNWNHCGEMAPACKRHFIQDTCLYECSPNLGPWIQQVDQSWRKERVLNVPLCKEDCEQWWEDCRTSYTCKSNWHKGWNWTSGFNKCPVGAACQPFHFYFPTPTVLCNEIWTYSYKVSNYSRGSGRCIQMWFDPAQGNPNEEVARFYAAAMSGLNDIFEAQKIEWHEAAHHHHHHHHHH
T2 sequence (chain, as listed by the source limits assumed): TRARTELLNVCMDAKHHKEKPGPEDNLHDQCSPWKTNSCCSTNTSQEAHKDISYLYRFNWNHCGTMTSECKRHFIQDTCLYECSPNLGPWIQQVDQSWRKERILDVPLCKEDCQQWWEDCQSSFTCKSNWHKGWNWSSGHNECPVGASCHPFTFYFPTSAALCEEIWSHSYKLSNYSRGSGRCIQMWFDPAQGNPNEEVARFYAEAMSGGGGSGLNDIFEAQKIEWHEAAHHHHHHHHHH

B1: AB1370049 hIgG1 (antibody, V domains shown)
VH: LVQLQQSGPGLVKPSQTLSLTCAISGDSVSSDSATWNWIRQSPSRGLEWLGRTYYRSKWYNDYAVSVKSRITINPDTSKNQFSLQLNSVTPEDTAVYYCARGVGSFDYWGQGTLVTVSS
VL: not shown
One may read the Kd as a measure of binding affinity in units of concentration. Low readings indicate a tighter complex, high ones a looser complex. Take B1: the Kd in [1] stood at 36.9 nM.

B2: AB1370035 (hybridoma IgG) (antibody, V domains shown)
VH: QVQLQQSGPGLVKPSQTLSLTCAISGDSVSSNSAAWNWIRQSPSRGLEWLGRTYYRSNWYNDYTLSVKSRITVNPDTSKNQFSLQLNSVTPEDTAVYYCVRGVGRFDSWGQGTLVTVSS
VL: DIQMTQSPSTLSASVGDRVIITCRASQSISSWLAWYQQKPGKAPKLLIYKASSLESGVPSRFSGSGSGTEFTLTITSLQPDDFASYYCQEYKTYSIFTFGPGTKVDIK
notes: IgG from hybridoma of Del-1 humanised mouse, tested as supernatant ('mouse IgG', detected with anti-mouse IgG) or Phynexus purified
As to B2, the binding result in experiment [2], in experiment [3] and in [4] was “no binding” in each case.

B3: AB1370049 (hybridoma IgG) (antibody, V domains shown)
VH: LVQLQQSGPGLVKPSQTLSLTCAISGDSVSSDSATWNWIRQSPSRGLEWLGRTYYRSKWYNDYAVSVKSRITINPDTSKNQFSLQLNSVTPEDTAVYYCARGVGSFDYWGQGTLVTVSS
VL: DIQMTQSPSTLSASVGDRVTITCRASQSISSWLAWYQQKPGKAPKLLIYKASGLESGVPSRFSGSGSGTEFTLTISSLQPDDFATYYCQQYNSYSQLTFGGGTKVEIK
notes: as for B2
As for B3, the binding result in experiment [2], in [3] and in experiment [4] was “no binding” throughout.

B4: AB1370117 (hybridoma IgG) (antibody, V domains shown)
VH: QVQLQQSGPGLVKPSQTLSLTCAISGDSVSSDSATWNWIRQSPSRGLEWLGRTYYRSKWYSDYAVSVKSRITINPDTSKNQFSLQLNSVTPEDTAVYFCARGGAPFDYWGQGTLVTVSS
VL: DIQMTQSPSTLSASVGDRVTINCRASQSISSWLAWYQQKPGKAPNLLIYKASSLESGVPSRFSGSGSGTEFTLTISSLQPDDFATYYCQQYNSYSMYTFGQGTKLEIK
notes: as for B2
In the case of B4, the binding result in experiment [2], in experiment [3] and in experiment [4] was “no binding” throughout.

B5: AB1370026 hIgG1 (antibody, V domains shown)
VH: EVQLVESGGGLVKPGGSLRLSCAASGFTFSSYAMSWVRQAPGKGLEWVSSISSGRSYIYYADSVKGRFTISRDNAKNSLYLKMNSLRDEDTAVYYCAREMQQLALDYWGQGTLVTVSS
VL: DIQMTQSPSSLSASVGDRVTITCRASQGISNFLAWFQQAPGKAPKSLIYAASSLQSGVPSKFSGSGSGTDFTLTISSLQPEDFATYYCQQYNSYPFTFGQGTKLEIKR
Broadly, the IC50 is the point on the concentration scale where inhibition reaches its midpoint. Low readings indicate higher potency, high ones lower potency. In general, koff refers to the first-order rate constant of dissociation. A low value points to slow dissociation. One may read the kon as the second-order rate constant of association. A high value points to faster complex formation. As to B5, the “fold difference (IC50 45°C against 4°C)” value in experiment [5] stood at 1 fold. Also, the IC50 turned out to be 0.708 nM in experiment [6], 0.032 nM in [8], 0.711 nM in experiment [10] and 0.177 nM in [11]. Besides, the values for the equilibrium dissociation constant (Kd) in experiment [7] and in experiment [1] were 1.3 nM and 1.8 nM, respectively. Moreover, the off-rate (koff) in [7] is 0.000354 s⁻¹; in [1], 0.000342 s⁻¹. Moreover, the association rate constant (kon) turned out to be 279000 M⁻¹ s⁻¹ in experiment [7] and 195000 M⁻¹ s⁻¹ in experiment [1]. In addition, in experiment [9], the “fold difference of affinity, cyno FRα against human FRα” value (shortened to “fold difference of affinity, cyno FRα”) was no more than 2.5 fold.

B6: AB1370083 hIgG1 (antibody, V domains shown)
VH: EVQLVESGGGLVKPGGSLRLSCAASGFTFSSYNMNWVRQAPGKGLEWVSSISSGSSYIYYADSMKGRFTISRDNAKNSLFLQMNSLRAEDTAVYYCARGMTTLTFDYWGQGTLVTVSS
VL: DIQMTQSPSSLSASVGDRVTITCRASQGISTFLAWFQQKPGKAPKSLIYAASSLQSGVPSKFSGSGSETDFTLTISSLQPEDFATYYCQQYISYPLTFGGGTKVEIKR
On to B6, for which the “fold difference (IC50 45°C against 4°C)” value in experiment [5] was 1.3 fold. Also, the IC50 in [6] was found to be 0.0665 nM; in [8], 0.0296 nM; in experiment [10], 0.0511 nM; in experiment [11], 0.0806 nM. For the same molecule, the dissociation constant (Kd) was determined as 0.93 nM in experiment [7] and 1.56 nM in experiment [1]. Besides, the koff turned out to be 0.000135 s⁻¹ in experiment [7] and 0.00016 s⁻¹ in experiment [1]. The on-rate constant (kon) in experiment [7] came out at 145000 M⁻¹ s⁻¹; in [1], 101000 M⁻¹ s⁻¹. Besides, the “fold difference of affinity, cyno FRα” value in experiment [9] was no more than 2.5 fold.

B7: AB1370026 (hybridoma IgG) (antibody, V domains shown)
VH: EVQLVESGGGLVKPGGSLRLSCAASGFTFSSYAMSWVRQAPGKGLEWVSSISSGRSYIYYADSVKGRFTISRDNAKNSLYLKMNSLRDEDTAVYYCAREMQQLALDYWGQGTLVTVSS
VL: DIQMTQSPSSLSASVGDRVTITCRASQGISNFLAWFQQAPGKAPKSLIYAASSLQSGVPSKFSGSGSGTDFTLTISSLQPEDFATYYCQQYNSYPFTFGQGTKLEIK
notes: as for B2
For B7, the binding result in [2], in experiment [3] and in experiment [4] was “no binding” in each case.

B8: AB1370095 hIgG1 (antibody, V domains shown)
VH: EVQLVESGGGLVKPGGSLRLSCAASGFTFSSYSMNWVRQAPGKGLEWVSSISSRSSYVYYADSVKGRFTISRDNAKNSLYLQMNSLRAEDTAVYYCARGMTTLTFDYWGQGTLVTVSS
VL: DIQMTQSPSSLSASVGDRVTITCRASQGISSFLAWFQQKPGKAPKSLIYAASSLQSGVPSKFSGSGSGTDFTLTISSLQPEDFATYYCQQYNSYPLTFGGGTKVEIKR
Turning to B8, the “fold difference (IC50 45°C against 4°C)” value in experiment [5] is 0.85 fold. For the same molecule, the IC50 in [6] was determined as 4.31 nM; in experiment [8] it was 0.363 nM; in [10], 5.07 nM; in experiment [11] it was 4.15 nM. Further, the dissociation constant Kd in experiment [7] is 13.5 nM; in experiment [1], 19.1 nM. The dissociation rate constant (koff) in experiment [7] worked out at 0.00129 s⁻¹; in experiment [1], 0.00183 s⁻¹. In addition, the association rate constant (kon) turned out to be 95700 M⁻¹ s⁻¹ in [7] and 95800 M⁻¹ s⁻¹ in experiment [1]. Moreover, in experiment [9], the “fold difference of affinity, cyno FRα” value is no more than 2.5 fold.

B9: AB1370083 (hybridoma IgG) (antibody, V domains shown)
VH: EVQLVESGGGLVKPGGSLRLSCAASGFTFSSYNMNWVRQAPGKGLEWVSSISSGSSYIYYADSMKGRFTISRDNAKNSLFLQMNSLRAEDTAVYYCARGMTTLTFDYWGQGTLVTVSS
VL: DIQMTQSPSSLSASVGDRVTITCRASQGISTFLAWFQQKPGKAPKSLIYAASSLQSGVPSKFSGSGSETDFTLTISSLQPEDFATYYCQQYISYPLTFGGGTKVEIK
notes: as for B2
On to B9, for which the binding result in [2], in experiment [3] and in [4] was “no binding” each time.

B10: AB1370095 (hybridoma IgG) (antibody, V domains shown)
VH: EVQLVESGGGLVKPGGSLRLSCAASGFTFSSYSMNWVRQAPGKGLEWVSSISSRSSYVYYADSVKGRFTISRDNAKNSLYLQMNSLRAEDTAVYYCARGMTTLTFDYWGQGTLVTVSS
VL: DIQMTQSPSSLSASVGDRVTITCRASQGISSFLAWFQQKPGKAPKSLIYAASSLQSGVPSKFSGSGSGTDFTLTISSLQPEDFATYYCQQYNSYPLTFGGGTKVEIK
notes: as for B2
For the molecule B10, the binding result in [2], in experiment [3] and in [4] was “no binding” in each case.
